Data published in the nanobody polyreactivity screen of Harvey et al. (2022).

Test: yeast display, Sf9 membrane polyspecificity reagent, FACS + sequencing; frameworks hold sequencing errors
Summary of the method: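 Sorting gates, low and high (top ~1%), were placed on anti-HA fluorescence to track expression and on streptavidin fluorescence to track reagent binding. A clone's polyreactivity label is taken from the gate it came out of. The reagent was 10% biotinylated, detergent-solubilized Sf9 membrane, applied for 1 hour at 4 °C to galactose-induced yeast display cells.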

## QVHLQESGGGLVQAGGSLRMSCAASGTIFTEANMGWYRQAPGKERELVATIGLGSTTNYADSVKGRFTISRDNAKNTVYLQMNSLKPEETAVYYCAVVTVDPVGFVYWGQGSQVTVSS
  polyreactivity (PSR sort gate): low polyreactivity

## QVHLVDSGGGLVQAGCSLPLSCAASGRTFLAYAMGWYRQEPGKERQLVAAISGSGGRSYYADSVKGRFTISRDNAMNTVYLQMNSLKPEDTAVYYCAANVVRWWGDGDYWGQGTQVTVSS
  polyreactivity (PSR sort gate): high polyreactivity

## QVHLVDSGGGLVQAGGSLRLSCAASGYIFPYNAMGWYRQEPGKERELVATITGTGGSTYYADSVKGRFTISRDNAKITVYLQMNSLKPEDTAVFYCAADLSIRYDHEYGYWGQGTQLTVSS
  polyreactivity (PSR sort gate): low polyreactivity

## QVHLVESAGGLLQAAASLRLSGDASGSIISSYAMGWYRQAPGKERQLVAAITRSGGSTYYADSVKGRFTISRDYAKKTVYLQMNSLNPEDTAVYYCAARSYVHVFVRMYYWGQGTQVTVSS
  polyreactivity (PSR sort gate): high polyreactivity

## QVHLVESAGGLVQAGGSLRLSCAASGLIFGTYAMGWYRPAPGKERELVATINSSGGSTYYADSVKGRFTISRDNAKNTVYLQINSLKPEDTAVYYCAADNWVNDGDYWGQGTQVTVLS
  polyreactivity (PSR sort gate): low polyreactivity

## QVHLVESAGGLVQAGGSLRLSCAPSGSTFPLYVMGWYRQAPGKERELVAAIDWSGGSTYYADSVKGRFTISRDNAKNTVYLQMNRLKPEDSAVYYCNARYLRRGDYWGQGTQVTVSS
  polyreactivity (PSR sort gate): low polyreactivity

## QVHLVESGAGLVHAGGRLRLSCAASGRIFFGYAMGWYRQAPGKERELVAGITSSTGRTYYADSVKGRFTISRDNAKNTVYLQMNSVKPEDTAVYYCAADTWYRYDYWGQGTQVTESS
  polyreactivity (PSR sort gate): low polyreactivity

## QVHLVESGGAIVQAGGSLRLSCAASGYIFDRNAMAWYRQAPGKERELVAAITKRGGITYYADSVKGRFTISRDNAKNTVYLQMNSLKAEDTAVYYCNALARSSRYDYWGKGTQVTVSS
  polyreactivity (PSR sort gate): low polyreactivity

## QVHLVESGGALVQAGGSLRLSCAASGFTFHTYASRLYRQAPGKEREFVAAISYSGGNTYYADSVKGHFTISRDNAKKTVYLHMNSLKPEDTAVYYCAAQYYYRYYWGPGTQVTVSS
  polyreactivity (PSR sort gate): high polyreactivity

## QVHLVESGGCLVQAGGSLRLSCAASGFIFPTYAMGWYRQAPGKERELVATITTNAGGTHYADSVKGRFTISRDNAKNTVYLQMNCLKQEDTAVYYCAAKQYRPKQRKYWTRIYDYWGQGTQVTVSS
  polyreactivity (PSR sort gate): low polyreactivity

## QVHLVESGGCLVQAGGSLRLSCAASGSTFPSYAMGWYRQAPGKERELVAAINSGGGTNYADSVKGRFTITRDNAKNTVYLQLNILKPEDSAVYYGAADVWKLYDYWGQGTQVTVSS
  polyreactivity (PSR sort gate): low polyreactivity

## QVHLVESGGGFVQAGGSLRLSCAASGSIFWLYAMGWYRHAPGKERELVAAISWSTGGTYYADSVKGRFTISRDNAKNTVYLQMNSLKPEDTAVYYCNADTYDQYNYWGQGTQVTVSS
  polyreactivity (PSR sort gate): low polyreactivity

## QVHLVESGGGIVQAGGSLPLTCAAYGSIFNRYAMGWYRPAPGKERQLVAAISLTSGSTYYADYVKGRFTISRDNEKITVYLQMNSLKPEDTAVYYCATRRKVGPTQVGFYYRGGVDYWGQGTQVTVSS
  polyreactivity (PSR sort gate): high polyreactivity

## QVHLVESGGGIVQAGLSLRLSCAASGRTFVVNAMGWYRQAPGKERELVAAISYSGGRTYYADSVKGRFTISRDIAKNTVYLKMNSLKPEDTAVYYCAAQSRYGGKFYYWGQGTQVTVSS
  polyreactivity (PSR sort gate): high polyreactivity

## QVHLVESGGGLDQAGGSLRLICPASGLIFYRYAMGWYRQAPGKERELVAAITTNGARTYYADSVKGRFTISRDNAKNTVYLQMNSLIPEDTAVYYCAGYGAGKFWAEHNYWGQGTQVTVSS
  polyreactivity (PSR sort gate): high polyreactivity

## QVHLVESGGGLDQAGGSLRLSCAASGRTFKRYAMGWYRQAPGKETELVAAISWSGTSTYYADSVKGRFTISRDNAKNTVYLQMNSLKPEDTALYFCNTPHRSSSVRSYGYWGQGTQVTVSS
  polyreactivity (PSR sort gate): high polyreactivity

## QVHLVESGGGLFQAGGSLRISCAASGRIFIGNAMGWYRPAPGKERELVAAISKRGGSTYYADSVKGRFTISRDYAKNTVYLQMNSLKPEDTAVYYCNKESLYREFDYWGQGTQVTVSS
  polyreactivity (PSR sort gate): low polyreactivity
